No end group written: not given here. vector‑coded linker = not defined here
How the values were obtained:
[1] = target: T1, Fibronectin ED-B protein (recombinant, N-terminal His-tag, biotinylated where captured on streptavidin) (human, UniProt P02751 1266-1356, biotin by sulfo-NHS-SS-biotin (for biopanning, input phage ELISA and SPR on SA chip)); assay: SPR (Biacore X), biotin-EDB on streptavidin chip
T1 construct: domain: ED-B; Expressed in E. coli BL21 from pET28b; also called fibronectin extra domain B; biotinylated-EDB; not shown: N-terminal His-tag from pET28b
T1 sequence (P02751 1266-1356): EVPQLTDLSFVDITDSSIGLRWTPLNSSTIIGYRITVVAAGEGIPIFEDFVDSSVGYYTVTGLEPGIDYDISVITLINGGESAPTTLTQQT
Procedure: (§1) We tested using a SPR device whether the purified GST-BPB protein can bind to fibronectin EDB. […] PBS (pH 7.4) was used as a running buffer and the flow rate was 30 μ1/min. The kinetics was measured in various concentrations and then the affinity was calculated using BIAevaluation.
The affinity of the GST-BPB to fibronectin ED-B was measured using the SPR biacore system.

[2] = target: T1, Fibronectin ED-B protein (recombinant, …); assay: SPR (Biacore X), biotin-EDB on streptavidin chip up to 2000 RU
Procedure: as §1

[3] = target: T1, Fibronectin ED-B protein (recombinant, …); assay: phage ELISA on 10 coated proteins, absorbance at 450 nm
Procedure: Each protein (5 μg/ml) was seeded into wells (50 μl per well) in a 96-well ELISA plate and next day, all wells were washed with 0.1% PBST (Tween-20) three times, and blocked at room temperature for 2 hrs using 2% skim milk. Then, the solution was completely removed and the plate was washed with 0.1% PBST three times. Recombinant phages containing the peptide of the present invention were thoroughly mixed with 2% BSA. Each mixture (100 μl) was divided into wells coated with 10 proteins and kept to stand at 27° C. for 2 hrs. After washing with 0.1% PBST 5 times, HRP-conjugated anti-M13 antibodies (1:1,000 dilution; GE Healthcare) were added to each well and incubated at 27° C. for 1 hr. After washing with 0.1% PBST 5 times, 100 μl TMB was divided into each well to induce colorimetric reaction, followed by stopping the reaction adding 100 μl of 1 M HCl. The absorbance was measured at 450 nm.

VCAM1-Trx [4] = target: T2, VCAM1-Trx (human, UniProt P19320 25-698); assay: SPR (Biacore)
T2 construct: the form used in SPR is not described; also called Trx-VCAM1; vascular cell adhesion molecule-1; not shown: Trx (thioredoxin) fusion partner and tags of pET32a
T2 sequence (looked up): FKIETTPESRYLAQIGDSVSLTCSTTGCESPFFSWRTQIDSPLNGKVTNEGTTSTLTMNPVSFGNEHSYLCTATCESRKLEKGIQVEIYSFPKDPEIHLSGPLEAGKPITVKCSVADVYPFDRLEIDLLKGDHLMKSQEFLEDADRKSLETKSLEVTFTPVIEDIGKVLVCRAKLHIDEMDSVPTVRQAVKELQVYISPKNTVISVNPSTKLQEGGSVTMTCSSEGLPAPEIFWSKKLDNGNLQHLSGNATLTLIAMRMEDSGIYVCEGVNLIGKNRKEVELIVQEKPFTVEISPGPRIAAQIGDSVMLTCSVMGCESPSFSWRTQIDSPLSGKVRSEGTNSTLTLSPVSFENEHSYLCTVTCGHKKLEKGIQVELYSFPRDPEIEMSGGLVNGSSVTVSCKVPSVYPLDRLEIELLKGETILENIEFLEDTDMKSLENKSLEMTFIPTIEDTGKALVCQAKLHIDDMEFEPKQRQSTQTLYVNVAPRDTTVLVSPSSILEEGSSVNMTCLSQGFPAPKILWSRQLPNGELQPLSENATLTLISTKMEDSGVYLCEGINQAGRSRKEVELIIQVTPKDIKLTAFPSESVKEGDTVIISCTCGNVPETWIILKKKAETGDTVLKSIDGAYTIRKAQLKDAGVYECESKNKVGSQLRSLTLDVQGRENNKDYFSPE

VCAM1-Trx [5] = target: T2, VCAM1-Trx; assay: SPR (Biacore), synthetic peptide; immobilisation of VCAM1 not described
Trx = target: T3, Trx; assay: phage ELISA (anti-M13-HRP, absorbance at 450 nm), proteins coated at 5 µg/ml
T3 construct: Control for the fusion partner; also called thioredoxin; not shown: The His-tag/S-tag linker tail of pET32a, if Trx was expressed from the empty vector

TNFa = target: T4, TNFa; assay: as above
T4 construct: Control protein; also called TNF-α

[6] = target: T1, Fibronectin ED-B protein (recombinant, …); assay: as above
VEGF121 = target: T5, VEGF121 (human, UniProt P15692-9 27-147); assay: as above
T5 construct: Isoform VEGF121; also called vascular endothelial growth factor
T5 sequence (looked up): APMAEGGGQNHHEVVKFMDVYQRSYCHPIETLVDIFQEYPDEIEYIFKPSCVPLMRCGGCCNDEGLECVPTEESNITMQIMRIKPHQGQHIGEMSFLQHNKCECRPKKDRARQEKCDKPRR

BSA = BSA (UniProt P02769 25-607); assay: as above
Sequence of BSA (P02769 25-607 limits assumed): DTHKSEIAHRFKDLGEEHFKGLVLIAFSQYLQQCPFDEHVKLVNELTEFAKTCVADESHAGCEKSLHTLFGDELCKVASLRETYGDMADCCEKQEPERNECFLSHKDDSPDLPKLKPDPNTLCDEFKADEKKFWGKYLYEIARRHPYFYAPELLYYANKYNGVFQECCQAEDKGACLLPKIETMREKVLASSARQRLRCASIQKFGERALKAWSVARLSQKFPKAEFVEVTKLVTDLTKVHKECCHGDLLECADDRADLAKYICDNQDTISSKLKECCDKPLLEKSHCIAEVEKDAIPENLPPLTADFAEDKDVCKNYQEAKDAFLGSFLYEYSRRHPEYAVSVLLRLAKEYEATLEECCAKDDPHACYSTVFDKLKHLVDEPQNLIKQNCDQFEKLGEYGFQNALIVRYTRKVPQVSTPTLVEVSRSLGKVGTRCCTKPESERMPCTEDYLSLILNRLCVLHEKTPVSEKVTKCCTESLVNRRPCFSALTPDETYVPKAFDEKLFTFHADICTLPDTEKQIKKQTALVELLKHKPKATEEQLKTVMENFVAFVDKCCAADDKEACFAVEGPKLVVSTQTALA

B1: GST-BPB fusion protein for fibronectin EDB (other)
chain: {GST-vector‑coded linker}-HCSSAVGSWTWENGKWTWKGIIRLEQ
modifications: not fully specified; reading uncertain
notes: BPB insert cloned BamHI/XhoI into pGEX4T-1, expressed in E. coli BL21; The reverse primer GST-B1 may add a few residues after the BPB; not shown: glutathione S-transferase (GST) as coded by the pGEX4T-1 vector (GE Healthcare); vector-coded linker between GST and BPB
koff [1]: 0.00347 s⁻¹
kon [1]: 12200 M⁻¹ s⁻¹
Kd [2]: 284 nM

B2: Peptide 2 specific to fibronectin ED-B (Table 3a) (peptide)
peptide: HCSSAVGSWTWENGKWTWKGIIRLEQ
notes: Synthetic peptide in SPR; also called tryptophan zipper
fold absorbance against other proteins [3]: 30 fold

B3: Peptide 1 specific to VCAM1 (Table 3c) (peptide)
peptide: QARDCTGSWTWENGKWTWKGPSICPI
notes: Synthetic peptide in SPR; also called BPB
koff (VCAM1-Trx [4]): 0.1 s⁻¹
kon (VCAM1-Trx [4]): 330000 M⁻¹ s⁻¹
Kd (VCAM1-Trx [5]): 318 nM
binding result (Trx): no binding
binding result (TNFa): no binding
binding result [6]: no binding
binding result (VEGF121): no binding
binding result (BSA): no binding

— patent US20120321697A1 (GWANGJU INSTITUTE OF SCIENCE AND TECHNOLOGY, published 2012)
